According to patent US20260028421A1 (JIANGSU HENGRUI PHARMACEUTICALS, published 2026):

Target: T1, hGUCY2C ECD-His (human, UniProt P25092 24-430)
T1 construct: also called human GUCY2C protein
Assay: SPR Biacore, antibody captured
Description: To test the affinity of the GUCY2C monoclonal antibodies of the present disclosure for GUCY2C, in this test example, the instruments Biacore 8K and Biacore T200 were used to detect the ability of the antibodies to bind to hGUCY2C-ECD-His (SEQ ID NO: 3). The specific method is as follows: The antibody was affinity-captured using a Protein A biosensor chip conjugated with an anti-human antibody, then a solution containing GUCY2C Protein flowed on the surface of the chip, and reaction signals were detected in real time with an instrument to obtain association and dissociation curves. After dissociation was completed for each cycle, the biosensor chip was washed with 10 mM glycine-hydrochloric acid (pH 1.5) for regeneration. Data fitting was performed using a 1:1 model.

Binder | Kd | koff | kon
M81 CHI (antibody, human IgG1, kappa, V domains shown, chimeric, murine variable regions on human IgG1/kappa; also called M81CH1) VH: EFQLQQSGPELVKPGASVKISCKASGYSFTDHNMNWVKQSNGKSLEWIGVMNPKFGTINYNQKFKDKATLTVDQSSSTAYMQLNSLTSEDSAVYYCVRDDYPNYFDYWGQGTTLTVSS VL: QIVLTQSPAIMSASPGEKVTISCSASSSVNYMYWYQQKPGSSPKSWIYRTSNLASGVSARFSGSGSGTSYSLTISSMEAEDAATYYCQQYHDYPPTFGGGTKLEIKR | 0.27 nM | 5.9e-05 s⁻¹ | 216000 M⁻¹ s⁻¹
P3-C7 L2H1 (antibody, human IgG1, kappa, V domains shown, hP3-C7 H1 + L2) VH: EVQLVQSGAEVKKPGASVKVSCKASGYTFTDHYIHWVRQAPGQGLEWMGVINPYNDGATYNQKFKGRVTMTVDKSTSTVYMELSSLRSEDTAVYYCARPPRAYGNYAGYWGQGTTVTVSS VL: DVVMTQTPLSLPVTPGEPASISCRSSQSLVHSNGNTYLHWYLQKPGQSPQLLIYKVSNRFSGVPDRFSGSGSRTDFTLKISRVEAEDVGVYYCSQSTHVPYTFGGGTKVEIKR | 5.35 nM | 0.000166 s⁻¹ | 31000 M⁻¹ s⁻¹
P3-C7 L4H1 (antibody, human IgG1, kappa, V domains shown, hP3-C7 H1 + L4) VH: EVQLVQSGAEVKKPGASVKVSCKASGYTFTDHYIHWVRQAPGQGLEWMGVINPYNDGATYNQKFKGRVTMTVDKSTSTVYMELSSLRSEDTAVYYCARPPRAYGNYAGYWGQGTTVTVSS VL: DVVMTQTPLSLPVTPGEPASISCRSSQSLVHSSGNTYLHWYLQKPGQSPQLLIYKVSNRFSGVPDRFSGSGSRTDFTLKISRVEAEDVGVYYCSQSTHVPYTFGGGTKVEIKR | 73.4 nM | 0.00209 s⁻¹ | 28500 M⁻¹ s⁻¹
P3-C7 L5H1 (antibody, human IgG1, kappa, V domains shown, hP3-C7 H1 + L5) VH: EVQLVQSGAEVKKPGASVKVSCKASGYTFTDHYIHWVRQAPGQGLEWMGVINPYNDGATYNQKFKGRVTMTVDKSTSTVYMELSSLRSEDTAVYYCARPPRAYGNYAGYWGQGTTVTVSS VL: DVVMTQTPLSLPVTPGEPASISCRSSQSLVHSTGNTYLHWYLQKPGQSPQLLIYKVSNRFSGVPDRFSGSGSRTDFTLKISRVEAEDVGVYYCSQSTHVPYTFGGGTKVEIKR | 26.7 nM | 0.000719 s⁻¹ | 26900 M⁻¹ s⁻¹
81 L3H2 (antibody, human IgG1, kappa, V domains shown, h81 H2 + h81 L3) VH: EVQLVQSGAEVKKPGASVKVSCKASGYTFTDHNMNWVKQAPGQRLEWMGVMNPKFGTINYNQKFKDKATITRDTSASTAYMELSSLRSEDTAVYYCARDDYPNYFDYWGQGTTVTVSS VL: DIQLTQSPSFLSASPGDRVTITCSASSSVNYMYWYQQKPGSSPKSWIYRTSNLASGVPSRFSGSGSGTEYTLTISSLQPEDFATYYCQQYHDYPPTFGGGTKVEIKR | 0.41 nM | 0.000103 s⁻¹ | 251000 M⁻¹ s⁻¹
81 L4H2 (antibody, human IgG1, kappa, V domains shown, h81 H2 + h81 L4) VH: EVQLVQSGAEVKKPGASVKVSCKASGYTFTDHNMNWVKQAPGQRLEWMGVMNPKFGTINYNQKFKDKATITRDTSASTAYMELSSLRSEDTAVYYCARDDYPNYFDYWGQGTTVTVSS VL: DIQLTQSPSFLSASPGDRVTITCSASSSVNYMYWYQQKPGSSPKSWIYRTSNDASGVPSRFSGSGSGTEYTLTISSLQPEDFATYYCQQYHDYPPTFGGGTKVEIKR | 0.98 nM | 0.000207 s⁻¹ | 212000 M⁻¹ s⁻¹

Now from value to binder:

Kd | koff | kon | Binder
0.46 nM | 9.22e-05 s⁻¹ | 203000 M⁻¹ s⁻¹ | M146 CHI (antibody, human IgG1, kappa, V domains shown, chimeric) VH: EFQLQQSGPELVKPGASVKISCKASGYSFTDYNMNWVKQSNGKSLEWIGLINPKYGTTNYNQKFKGKATLTVDQSSSTAYMQLNSLTSEDSAVYYCAIDDYPAWFAYWGQGTLVTVSA VL: QIVLTQSPAIMSASPGEKVTISCSASSSLNYMYWYQQKPGSSPKSWIYRTSNLASGVPARFSGSGSGTSYSLTISSMEAEDAATYYCQQYHSYPPTFGAGTKLELKR
2.57 nM | 0.000181 s⁻¹ | 70700 M⁻¹ s⁻¹ | P1-C6 CHI (antibody, human IgG1, kappa, V domains shown, chimeric) VH: QVQLQQSGAELARPGASVKLSCKASGYTFTSYGITWVKRRTGQGLGWIGEIYPRSGNTYYNEKFKGKATLTADKSSSTAYMELRSLTSEDSAVYFCARAITTVVGDWYFDVWGTGTTVTVSS VL: DIVLTQSPASLAMSLGKRATISCRASESVSLIGTNLIHWYQQKPGQPPKLLIHHASNLEAGVPARFSGSGSRTDFTLTIDPVEEDDVAIYYCLQSRKIRTFGGGTKLEIKR
6.61 nM | 0.000149 s⁻¹ | 22600 M⁻¹ s⁻¹ | P3-C7 CHI (antibody, human IgG1, kappa, V domains shown, chimeric; also called P3-C7 CH1) VH: EVQLQQSGPVLLKPGASVKMSCKASGYTFTDHYIHWVKLSHGKSLEWIGVINPYNDGATYNQKFKGKATLTVDKSSSTAYMELNSLTSEDSAVYYCARPPRAYGNYAGYWGQGTTLTVSS VL: DVVMTQTPLSLPVSLGDQASISCRSSQSLVHSNGNTYLHWYLQKPGQSPKLLIYKVSNRFSGVPDRFIGSGSRTDFTLKISRVEAEDLGVYFCSQSTHVPYTFGGGTRLEIKR
47.5 nM | 0.00135 s⁻¹ | 28400 M⁻¹ s⁻¹ | P3-C7 L3H1 (antibody, human IgG1, kappa, V domains shown, hP3-C7 H1 + L3) VH: EVQLVQSGAEVKKPGASVKVSCKASGYTFTDHYIHWVRQAPGQGLEWMGVINPYNDGATYNQKFKGRVTMTVDKSTSTVYMELSSLRSEDTAVYYCARPPRAYGNYAGYWGQGTTVTVSS VL: DVVMTQTPLSLPVTPGEPASISCRSSQSLVHSQGNTYLHWYLQKPGQSPQLLIYKVSNRFSGVPDRFSGSGSRTDFTLKISRVEAEDVGVYYCSQSTHVPYTFGGGTKVEIKR
6.55 nM | 0.000156 s⁻¹ | 23700 M⁻¹ s⁻¹ | P3-C7 L1H1 (antibody, human IgG1, kappa, V domains shown, hP3-C7 H1 + L1) VH: EVQLVQSGAEVKKPGASVKVSCKASGYTFTDHYIHWVRQAPGQGLEWMGVINPYNDGATYNQKFKGRVTMTVDKSTSTVYMELSSLRSEDTAVYYCARPPRAYGNYAGYWGQGTTVTVSS VL: DIVMTQTPLSLPVTPGEPASISCRSSQSLVHSNGNTYLHWYLQKPGQSPQLLIYKVSNRFSGVPDRFSGSGSGTDFTLKISRVEAEDVGVYYCSQSTHVPYTFGGGTKVEIKR
20.4 nM | 0.000348 s⁻¹ | 17100 M⁻¹ s⁻¹ | M64 CHI (antibody, human IgG1, kappa, V domains shown, chimeric) VH: EVQLVESGGGLVKPGGSLKLSCAASGFTFSDYGMHWVRQAPEKGLEWVAYISSGSSTIYYADTVKGRFTISRDNAKNTLFLQMTSLRSEDTAMYYCARTRVYFYGSYWYFDVWGTGTTVTVSS VL: QIVLTQSPAIMSASPGEKVTMTCSASSSVSYMYWYQQKSGTSPKRWIYDTSKLASGVPARFSGSGSGTSYSLTISSLEAEDAATYYCQQWSSDPPYTFGGGTKLEIKR
0.46 nM | 0.000127 s⁻¹ | 274000 M⁻¹ s⁻¹ | 81 L2H2 (antibody, human IgG1, kappa, V domains shown, h81 H2 + h81 L2) VH: EVQLVQSGAEVKKPGASVKVSCKASGYTFTDHNMNWVKQAPGQRLEWMGVMNPKFGTINYNQKFKDKATITRDTSASTAYMELSSLRSEDTAVYYCARDDYPNYFDYWGQGTTVTVSS VL: EIVLTQSPDFQSVTPGEKVTITCSASSSVNYMYWYQQKPDQSPKSWIYRTSNLASGVPSRFSGSGSGTDFTLTISSLEAEDAATYYCQQYHDYPPTFGGGTKVEIKR
0.47 nM | 0.000114 s⁻¹ | 241000 M⁻¹ s⁻¹ | 81 L6H2 (antibody, human IgG1, kappa, V domains shown, h81 H2 + h81 L6) VH: EVQLVQSGAEVKKPGASVKVSCKASGYTFTDHNMNWVKQAPGQRLEWMGVMNPKFGTINYNQKFKDKATITRDTSASTAYMELSSLRSEDTAVYYCARDDYPNYFDYWGQGTTVTVSS VL: DIQLTQSPSFLSASPGDRVTITCSASSSVNYMYWYQQKPGSSPKSWIYRTQNLASGVPSRFSGSGSGTEYTLTISSLQPEDFATYYCQQYHDYPPTFGGGTKVEIKR
